Experimental data taken from publication PMC4472530 (2016).
Numbering of substitutions follows the chain as printed. Values belong to the binder of their own block, whether it stands above or below them.

Biological target: T1, RLC-depleted cardiac beta-myosin (myosin heavy chain) (Sus scrofa, UniProt P79293)
T1 chain: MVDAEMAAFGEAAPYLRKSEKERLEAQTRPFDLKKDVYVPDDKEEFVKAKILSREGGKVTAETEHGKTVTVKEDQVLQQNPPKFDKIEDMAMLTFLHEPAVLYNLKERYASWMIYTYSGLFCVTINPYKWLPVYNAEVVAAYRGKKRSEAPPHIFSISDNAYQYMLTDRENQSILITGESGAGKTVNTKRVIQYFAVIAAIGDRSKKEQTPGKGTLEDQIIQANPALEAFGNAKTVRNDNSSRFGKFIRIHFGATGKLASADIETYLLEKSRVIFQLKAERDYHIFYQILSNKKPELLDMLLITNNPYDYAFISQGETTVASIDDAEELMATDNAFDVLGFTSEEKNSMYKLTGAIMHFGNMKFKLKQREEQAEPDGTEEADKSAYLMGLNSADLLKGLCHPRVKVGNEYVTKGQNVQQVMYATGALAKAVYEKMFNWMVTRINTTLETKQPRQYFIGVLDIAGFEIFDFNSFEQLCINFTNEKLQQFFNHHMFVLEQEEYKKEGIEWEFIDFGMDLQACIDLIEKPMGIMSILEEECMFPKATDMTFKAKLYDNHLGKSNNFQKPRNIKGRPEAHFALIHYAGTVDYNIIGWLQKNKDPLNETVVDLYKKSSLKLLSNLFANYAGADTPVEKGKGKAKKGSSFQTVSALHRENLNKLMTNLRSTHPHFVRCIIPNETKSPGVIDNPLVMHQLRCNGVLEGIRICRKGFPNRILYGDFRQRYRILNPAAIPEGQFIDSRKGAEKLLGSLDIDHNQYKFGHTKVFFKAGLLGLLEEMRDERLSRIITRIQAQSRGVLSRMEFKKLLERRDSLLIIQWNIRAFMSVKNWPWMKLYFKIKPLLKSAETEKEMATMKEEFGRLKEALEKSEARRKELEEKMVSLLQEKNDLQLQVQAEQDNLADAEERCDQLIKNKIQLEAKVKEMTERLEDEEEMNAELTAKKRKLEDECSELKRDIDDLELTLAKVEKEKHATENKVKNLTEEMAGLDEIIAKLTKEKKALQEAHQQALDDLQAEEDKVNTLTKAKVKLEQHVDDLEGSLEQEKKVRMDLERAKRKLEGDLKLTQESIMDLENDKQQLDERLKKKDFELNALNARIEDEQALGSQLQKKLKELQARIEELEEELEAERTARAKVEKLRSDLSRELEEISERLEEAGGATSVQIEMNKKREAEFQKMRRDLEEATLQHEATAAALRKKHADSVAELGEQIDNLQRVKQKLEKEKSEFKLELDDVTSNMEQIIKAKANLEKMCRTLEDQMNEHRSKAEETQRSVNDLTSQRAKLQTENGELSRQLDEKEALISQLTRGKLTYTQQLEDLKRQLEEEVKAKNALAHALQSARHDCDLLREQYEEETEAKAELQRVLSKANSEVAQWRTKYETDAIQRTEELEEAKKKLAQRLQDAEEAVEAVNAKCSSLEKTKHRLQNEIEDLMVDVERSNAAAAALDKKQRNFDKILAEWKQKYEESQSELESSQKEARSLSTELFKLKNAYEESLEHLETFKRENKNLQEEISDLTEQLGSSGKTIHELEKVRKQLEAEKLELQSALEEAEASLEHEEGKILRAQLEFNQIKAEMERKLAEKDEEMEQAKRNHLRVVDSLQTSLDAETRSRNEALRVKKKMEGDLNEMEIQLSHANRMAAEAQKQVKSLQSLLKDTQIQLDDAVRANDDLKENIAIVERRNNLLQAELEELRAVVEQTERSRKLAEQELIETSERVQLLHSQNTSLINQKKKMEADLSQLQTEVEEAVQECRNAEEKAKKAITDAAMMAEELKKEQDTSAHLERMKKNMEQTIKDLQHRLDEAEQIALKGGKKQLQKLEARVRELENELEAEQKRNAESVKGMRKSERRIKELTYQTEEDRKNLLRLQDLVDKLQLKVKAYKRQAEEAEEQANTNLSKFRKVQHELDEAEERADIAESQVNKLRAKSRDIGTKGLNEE
Experiment: SDS-PAGE titration/co-precipitation binding isotherm

Kd: 3.2 µM
B1: Myosin regulatory light chain 2, ventricular (protein)
chain: APKKAKKRAGGANSNVFSMFEQTQIQEFKEAFTIMDQNRDGFIDKNDLRDTFAALGRVNVKNEEIDEMIKEAPGPINFTVFLTMFGEKLKGADPEETILNAFKVFDPEGKGVLKADYVREMLTTQAERFSKEEVDQMFAAFPPDVTGNLDYKNLVHIITHGEEKD

Kd: 4.9 µM
B2: Myosin regulatory light chain 2, ventricular (protein)
chain: B1 chain with D93A
